Where a chain is given by its changes, count along the chain named.
B1: unnamed (protein)
chain: MNFPRASRLMQAAVLGGLMAVSAAATAQTNPYARGPNPTAASLEASAGPFTVRSFTVSRPSGYGAGTVYYPTNAGGTVGAIAIVPGYTARQSSIKWWGPRLASHGFVVITIDTNSTLDQPSSRSSQQMAALRQVASLNGTSSSPIYGKVDTARMGVMGCSMGGGGSLISAANNPSLKAAAPQAPWDSSTNFSSVTVPTLIFACENDSIAPVNSSALPIYDSMSRNAKQFLEINGGSHCCANSGNSNQALIGKKGVAWMKRFMDNDTRYSTFACENPNSTRVSDFRTANCS
B2: unnamed (protein)
chain: B1 chain with C159W, C238S
B3: unnamed (protein)
chain: MQTTVTTMLLASVALAACAGGGSTPLPLPQQQPPQQEPPPPPVPLASRAACEALKDGNGDMVWPNAATVVEVAAWRDAAPATASAAALPEHCEVSGAIAKRTGIDGYPYEIKFRLRMPAEWNGRFFMEGGSGTNGSLSAATGSIGGGQIASALSRNFATIATDGGHDNAVNDNPDALGTVAFGLDPQARLDMGYNSYDQVTQAGKAAVARFYGRAADKSYFIGCSEGGREGMMLSQRFPSHYDGIVAGAPGYQLPKAGISGAWTTQSLAPAAVGLDAQGVPLINKSFSDADLHLLSQAILGTCDALDGLADGIVDNYRACQAAFDPATAANPANGQALQCVGAKTADCLSPVQVTAIKRAMAGPVNSAGTPLYNRWAWDAGMSGLSGTTYNQGWRSWWLGSFNSSANNAQRVSGFSARSWLVDFATPPEPMPMTQVAARMMKFDFDIDPLKIWATSGQFTQSSMDWHGATSTDLAAFRDRGGKMILYHGMSDAAFSALDTADYYERLGAAMPGAAGFARLFLVPGMNHCSGGPGTDRFDMLTPLVAWVERGEAPDQISAWSGTPGYFGVAARTRPLCPYPQIARYKGSGDINTEANFACAAPP
B4: unnamed (protein)
chain: MKSSIPISVGMLATALISGCGSVPDNTSNEPTVPLASKELCEGIASGATKVNWPNQNTVVKASVWHAVTPATANAPELPEHCEVTGSINQRTGVDGYPYEIKMRLRMPADWNGRFFMEGGGGTNGSLSAALGSLGGGQTSNALSRRFATVSTDGGHDNAVNNNPAALGSVAFGMDPQARLDHGYNSYDQVTLAGKSAVSTFYGRGPDKSYFIGCSEGGREGMMFSQRFPAHYDGIVAGAPGYQLPKAGISGAWTTQSLAPAAVGVDPDGAPLVNKSFSDPDLYLLTQAILGSCDALDGLADGIVGNYSACQSLFDPSTALNPATGQPLRCTGAKTDDCLSPVQVDAIKRAMSGPVDTAGTALYNKWPWDTGMSGLNGTTYFQGWRSWWLGSYDSSTNNAQRVNGSSARSWLVDFATPPEPVPLNQVATRMMNFDFDVDPPKIFATSGLFTQPSMQWHGATSTDLNAFRSRGGKLMLYHGMADAAFSALDTIAYYERLSTAMPSVSDFSRLFLVPGMGHCSGGPGTDRFDMLTPLVAWVENGTAPARVEASSSTPGYFGVSARSRPLCPHPQIARYTGSGDINEATNFVCGNP

What was measured:
[1] = substrate: MHET; assay: Proxy for plastic degradation [kcat] (s⁻¹); settings: pH 7.5
[2] = substrate: PET; assay: Proxy for plastic degradation [Released monomer concentration (HPLC/LC-MS) (BHET+MHET+TPA)]; settings: pH 7.5; part of the chain shown

| Protein | Proxy for plastic degradation [1] | Proxy for plastic degradation ([1]; part of the chain shown) | Proxy for plastic degradation [2] [mM] |
| --- | --- | --- | --- |
| B1 | 0.03 | – | – |
| B2 | – | 0 | – |
| B3 | – | 27.6 | 0 |
| B4 | 3.8 | – | – |

Reference: the PETadex activity labels (doi:10.1073/pnas.2006753117)
